Data from patent US7951917 (Genentech, dated 2011).

Target: T1, human thrombopoietin receptor, c-Mpl (human, UniProt P40238 26-491)
T1 construct: extracellular domain; Antigen of the library panning; also called MPL (human thrombopoietin receptor tyrosine kinase ECD)
T1 sequence (looked up): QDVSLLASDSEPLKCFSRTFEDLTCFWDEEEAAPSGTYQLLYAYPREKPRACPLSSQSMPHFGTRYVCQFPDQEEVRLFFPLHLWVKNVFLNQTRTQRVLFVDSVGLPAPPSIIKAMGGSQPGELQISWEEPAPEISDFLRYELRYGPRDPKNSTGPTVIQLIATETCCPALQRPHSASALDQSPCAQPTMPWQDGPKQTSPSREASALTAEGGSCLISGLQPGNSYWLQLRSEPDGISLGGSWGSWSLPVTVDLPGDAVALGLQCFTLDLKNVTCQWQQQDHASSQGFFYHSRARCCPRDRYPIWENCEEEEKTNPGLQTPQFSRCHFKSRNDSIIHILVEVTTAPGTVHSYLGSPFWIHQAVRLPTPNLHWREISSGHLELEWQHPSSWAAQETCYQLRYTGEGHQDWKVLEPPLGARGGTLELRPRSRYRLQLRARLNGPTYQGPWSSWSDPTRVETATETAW
Test: scFv from panning of a human scFv phage library

binding result: binds
B1: anti-Mpl scFv, 12B5 (scFv)
scFv: QVQLVQSGGGLVRPGGSLSLSCAVSGITLRTYGMHWVRQAPGKGLEWVAGISFDGRSEYYADSVQGRFTISRDSSKNTLYLQMNSLRAEDTAVYYCARGAHYGFDIWGQGTMVTVSSGGGGTGGGGSGGGGSDIQMTQSPSTLSASIGDRVTITCRASEGIYHWLAWYQQKPGKAPKLLIYKASSLASGAPSRFSGSGSGTDFTLTISSLQPDDFATYYCQQYSNYPLTFGGGTKLEIK
